PMC9426509

Molecular target: Echovirus 18 (E18) mature (full) virus particle, strain HeB15-254 (echovirus 18 (strain HeB15-254))
Assay: SPR; Biacore 3000, 25 C; biotinylated full E18 particles in PBS with Tween immobilised on streptavidin (SA) chips; FcRn or CD55 flowed at 31.25 nM to 2,000 nM; pH 7.4; 1:1 binding model

Substance: soluble ectodomain of human neonatal Fc receptor (FcRn): FCGRT (A16-L282) with B2M (from UniProt P61769 21-119) (complex)
- Kd: 343 nM
